The series deals with the molecule itself. As to the kind of experiment: crystal structure.

The values that follow come from article PMC3472039 (Journal of molecular biology, 2012).

Square brackets hold non-standard residues; d marks the D form. Ends that are not written are not given here. SeMet = C[Se]CC[C@H](N)C(=O)O

B1: SeMet-QkI-Qua1(14-67) C35S (domain or fragment, UniProt Q9QYS9 14-67, looked up)
chain: TPDYL[SeMet]QL[SeMet]NDKKL[SeMet]SSLPNFSGIFNHLERLLDEEISRVRKD[SeMet]YNDTLNGSTEK
Turning to B1, the “stoichiometry N” value was determined as 2.

By stoichiometry N is commonly meant the number of molecules, sites or subunits per partner or assembly.
